Values quoted from earlier work, collected in publication PMC4319847 (PLoS ONE, 2015).

System: Yeast importin-α
Conditions: in the crystal (1BK6) and in solution by DLS; ref [13]
Text: The open homodimerization probably attributes to H119 at the top of the loop; this loop corresponds to the K ...

B1: Yeast importin-α: Yeast importin-α (1BK6), first crystal structure of an importin-α shown to dimerize (protein, UniProt Q02821 1-542, looked up)
Importin subunit alpha: MDNGTDSSTSKFVPEYRRTNFKNKGRFSADELRRRRDTQQVELRKAKRDEALAKRRNFIPPTDGADSDEEDESSVSADQQFYSQLQQELPQMTQQLNSDDMQEQLSATVKFRQILSREHRPPIDVVIQAGVVPRLVEFMRENQPEMLQLEAAWALTNIASGTSAQTKVVVDADAVPLFIQLLYTGSVEVKEQAIWALGNVAGDSTDYRDYVLQCNAMEPILGLFNSNKPSLIRTATWTLSNLCRGKKPQPDWSVVSQALPTLAKLIYSMDTETLVDACWAISYLSDGPQEAIQAVIDVRIPKRLVELLSHESTLVQTPALRAVGNIVTGNDLQTQVVINAGVLPALRLLLSSPKENIKKEACWTISNITAGNTEQIQAVIDANLIPPLVKLLEVAEYKTKKEACWAISNASSGGLQRPDIIRYLVSQGCIKPLCDLLEIADNRIIEVTLDALENILKMGEADKEARGLNINENADFIEKAGGMEKIFNCQQNENDKIYEKAYKIIETYFGEEEDAVDETMAPQNAGNTFGFGSNVNQQFNFN
dimerization: dimerize not only in the crystal but also in solution
